Measured values as given in publication PMC6242696 (Cell, 2018).

What was measured:
[1] = target: T1, GDP/GTP carrier Ggc1 (containing the mutation C222S), C-terminal 6xHis-tag (Saccharomyces cerevisiae, C222S (stands in the printed letters)); assay: SAXS with online Ni-NTA purification
T1 chain: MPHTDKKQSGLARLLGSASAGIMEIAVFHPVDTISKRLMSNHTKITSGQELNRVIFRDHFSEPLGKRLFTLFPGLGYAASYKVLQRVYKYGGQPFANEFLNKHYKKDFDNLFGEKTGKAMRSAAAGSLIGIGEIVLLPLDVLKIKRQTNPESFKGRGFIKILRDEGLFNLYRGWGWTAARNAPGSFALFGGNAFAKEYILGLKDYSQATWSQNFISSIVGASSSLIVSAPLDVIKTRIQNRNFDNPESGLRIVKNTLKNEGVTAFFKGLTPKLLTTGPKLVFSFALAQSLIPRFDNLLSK

[2] = target: T1, GDP/GTP carrier Ggc1 (containing the …); assay: AUC + other: diffusion-ordered NMR
[3] = target: Aac3(2TM), comprising transmembrane helices 2 and 3 (residues 50-180), N-terminal 6xHis-Tag; assay: AUC + other: diffusion-ordered NMR
[4] = target: T2, Tim10 M32K (subunit of the mutant complex) (Saccharomyces cerevisiae, UniProt P87108 2-93, M32K); assay: SEC
T2 sequence (looked up): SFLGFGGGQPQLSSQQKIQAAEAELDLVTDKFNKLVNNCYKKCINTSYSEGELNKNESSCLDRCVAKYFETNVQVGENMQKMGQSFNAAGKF

[5] = target: T3, Tim10 V29K (subunit of the mutant complex) (Saccharomyces cerevisiae, UniProt P87108 2-93, V29K); assay: SEC
T3 sequence (looked up): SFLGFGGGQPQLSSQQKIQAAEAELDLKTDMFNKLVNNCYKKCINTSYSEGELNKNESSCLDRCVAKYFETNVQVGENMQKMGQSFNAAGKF

SEC = target: the molecule itself; assay: SEC

| Binder | stoichiometry N [1] | stoichiometry N [2] | stoichiometry N [3] | binding result [4] | binding result [5] | stoichiometry N (SEC) |
| --- | --- | --- | --- | --- | --- | --- |
| TIM9⋅10 chaperone complex (hexamer of Tim9 and Tim10), wild type (complex, Saccharomyces cerevisiae) chain 1: MDALNSKEQQEFQKVVEQKQMKDFMRLYSNLVERCFTDCVNDFTTSKLTNKEQTCIMKCSEKFLKHSERVGQRFQEQNAALGQGLGR chain 2: GSFLGFGGGQPQLSSQQKIQAAEAELDLVTDMFNKLVNNCYKKCINTSYSEGELNKNESSCLDRCVAKYFETNVQVGENMQKMGQSFNAAGKF | 2 TIM9⋅10 hexamers per Ggc1 | 2 TIM9⋅10 hexamers per precursor protein | 1 TIM9⋅10 hexamer per precursor chain |  |  |  |
| Tim9 (individual subunit) (natural protein, Saccharomyces cerevisiae) MDALNSKEQQEFQKVVEQKQMKDFMRLYSNLVERCFTDCVNDFTTSKLTNKEQTCIMKCSEKFLKHSERVGQRFQEQNAALGQGLGR |  |  |  | binds | binds | 2 |
